Experiments:
HeLa Kyoto [1] = assay: solubility in G1/S (NP-40 vs SDS abundance) (log2 ratio); higher = more soluble; conditions: cell cycle stage: G1/S
HeLa Kyoto [2] = assay: melting temperature (median over replicates), in situ; higher = more thermally stable
HeLa Kyoto [3] = assay: solubility change mitosis vs G1/S (difference of NP-40 vs SDS log2 ratios) (log2 ratio difference); higher = more soluble in mitosis
HeLa Kyoto [4] = assay: thermal stability score vs G1/S (z-score of summed log2 fold changes over temperatures); higher = more thermally stable than in G1/S
[5] = cell cycle stage: early G1 (4.5 h after nocodazole release)
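Wherever melting temperature (median over replicates), in situ is given: HeLa Kyoto cells synchronized by double thymidine or nocodazole block, proteins quantified by TMT10plex mass spectrometry, three independent biological replicates.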
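Wherever solubility change mitosis vs G1/S (difference of NP-40 vs SDS log2 ratios) is given: synchronized HeLa Kyoto cells (double thymidine block for G1/S, nocodazole release for mitosis), protein amounts in NP-40 versus SDS lysates quantified by mass spectrometry, three biological replicates.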
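Wherever solubility in G1/S (NP-40 vs SDS abundance) is given: HeLa Kyoto cells arrested at G1/S by double thymidine block, proteins quantified by TMT10plex mass spectrometry in mild NP-40 versus SDS extracts, three biological replicates.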
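Wherever thermal stability score vs G1/S (z-score of summed log2 fold changes over temperatures) is given: synchronized HeLa Kyoto cells, proteins quantified by TMT10plex mass spectrometry, three biological replicates, mitosis taken 0.5 h after nocodazole release, G1/S directly after double thymidine block.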

Sequence	solubility in G1/S (log2) (HeLa Kyoto [1])	melting temperature (HeLa Kyoto [2]; cell cycle stage: G1/S) [°C]	solubility change mitosis (log2) (HeLa Kyoto [3])	thermal stability score (HeLa Kyoto [4]; [5])	thermal stability score (HeLa Kyoto [4]; cell cycle stage: mitosis)	melting temperature (HeLa Kyoto [2]; cell cycle stage: mitosis) [°C]
MSEQSICQARASVMVYDDTSKKWVPIKPGQQGFSRINIYHNTASNTFRVVGVKLQDQQVVINYSIVKGLKYNQATPTFHQWRDARQVYGLNFASKEEATTFSNAMLFALNIMNSQEGGPSSQRQVQNGPSPDEMDIQRRQVMEQHQQQRQESLERRTSATGPILPPGHPSSAASAPVSCSGPPPPPPPPVPPPPTGATPPPPPPLPAGGAQGSSHDESSMSGLAAAIAGAKLRRVQRPEDASGGSSPSGTSKSDANRASSGGGGGGLMEEMNKLLAKRRKAASQSDKPAEKKEDESQMEDPSTSPSPGTRAASQPPNSSEAGRKPWERSNSVEKPVSSILSRTPSVAKSPEAKSPLQSQPHSRMKPAGSVNDMALDAFDLDRMKQEILEEVVRELHKVKEEIIDAIRQELSGISTT [EVL]	0.231	50	-0.143	-0.133	-0.273	
MSESGHSQPGLYGIERRRRWKEPGSGGPQNLSGPGGRERDYIAPWERERRDASEETSTSVMQKTPIILSKPPAERSKQPPPPTAPAAPPAPAPLEKPIVLMKPREEGKGPVAVTGASTPEGTAPPPPAAPAPPKGEKEGQRPTQPVYQIQNRGMGTAAPAAMDPVVGQAKLLPPERMKHSIKLVDDQMNWCDSAIEYLLDQTDVLVVGVLGLQGTGKSMVMSLLSANTPEEDQRTYVFRAQSAEMKERGGNQTSGIDFFITQERIVFLDTQPILSPSILDHLINNDRKLPPEYNLPHTYVEMQSLQIAAFLFTVCHVVIVVQDWFTDLSLYRFLQTAEMVKPSTPSPSHESSSSSGSDEGTEYYPHLVFLQNKARREDFCPRKLRQMHLMIDQLMAHSHLRYKGTLSMLQCNVFPGLPPDFLDSEVNLFLVPFMDSEAESENPPRAGPGSSPLFSLLPGYRGHPSFQSLVSKLRSQVMSMARPQLSHTILTEKNWFHYAARIWDGVRKSSALAEYSRLLA [SMG9]	0.242	49	-0.178	-0.759	-0.639	49.8
MSESLVVCDVAEDLVEKLRKFRFRKETNNAAIIMKIDKDKRLVVLDEELEGISPDELKDELPERQPRFIVYSYKYQHDDGRVSYPLCFIFSSPVGCKPEQQMMYAGSKNKLVQTAELTKVFEIRNTEDLTEEWLREKLGFFH [GMFB]	0.3	55.4	0.123	-2.8	-3.58	55.6
MSETVICSSRATVMLYDDGNKRWLPAGTGPQAFSRVQIYHNPTANSFRVVGRKMQPDQQVVINCAIVRGVKYNQATPNFHQWRDARQVWGLNFGSKEDAAQFAAGMASALEALEGGGPPPPPALPTWSVPNGPSPEEVEQQKRQQPGPSEHIERRVSNAGGPPAPPAGGPPPPPGPPPPPGPPPPPGLPPSGVPAAAHGAGGGPPPAPPLPAAQGPGGGGAGAPGLAAAIAGAKLRKVSKQEEASGGPTAPKAESGRSGGGGLMEEMNAMLARRRKATQVGEKTPKDESANQEEPEARVPAQSESVRRPWEKNSTTLPRMKSSSSVTTSETQPCTPSSSDYSDLQRVKQELLEEVKKELQKVKEEIIEAFVQELRKRGSP [VASP]	0.466	49.7	0.0947	0.605	2.18	50.4
MSEVTKNSLEKILPQLKCHFTWNLFKEDSVSRDLEDRVCNQIEFLNTEFKATMYNLLAYIKHLDGNNEAALECLRQAEELIQQEHADQAEIRSLVTWGNYAWVYYHLGRLSDAQIYVDKVKQTCKKFSNPYSIEYSELDCEEGWTQLKCGRNERAKVCFEKALEEKPNNPEFSSGLAIAMYHLDNHPEKQFSTDVLKQAIELSPDNQYVKVLLGLKLQKMNKEAEGEQFVEEALEKSPCQTDVLRSAAKFYRRKGDLDKAIELFQRVLESTPNNGYLYHQIGCCYKAKVRQMQNTGESEASGNKEMIEALKQYAMDYSNKALEKGLNPLNAYSDLAEFLETECYQTPFNKEVPDAEKQQSHQRYCNLQKYNGKSEDTAVQHGLEGLSISKKSTDKEEIKDQPQNVSENLLPQNAPNYWYLQGLIHKQNGDLLQAAKCYEKELGRLLRDAPSGIGSIFLSASELEDGSEEMGQGAVSSSPRELLSNSEQLN [IFIT3]	0.357	48.2	-0.0471	-0.282	1.1	49
MSEVTRSLLQRWGASFRRGADFDSWGQLVEAIDEYQILARHLQKEAQAQHNNSEFTEEQKKTIGKIATCLELRSAALQSTQSQEEFKLEDLKKLEPILKNILTYNKEFPFDVQPVPLRRILAPGEEENLEFEEDEEEGGAGAGSPDSFPARVPGTLLPRLPSEPGMTLLTIRIEKIGLKDAGQCIDPYITVSVKDLNGIDLTPVQDTPVASRKEDTYVHFNVDIELQKHVEKLTKGAAIFFEFKHYKPKKRFTSTKCFAFMEMDEIKPGPIVIELYKKPTDFKRKKLQLLTKKPLYLHLHQTLHKE [AIDA]	0.32	50.9	0.0508	-0.484	-0.48	50.5

From the supplement of paper PMC5998384
